Experiment [1] concerns the target T1, AD4 polypeptide (cloned AD4 fragment of CMV AD169 envelope glycoprotein B) (human cytomegalovirus strain AD169, UniProt P06473 112-438).
T1 construct: also called antigenic domain 4
The experiment in a line: SPR (Biacore T200), antibody captured on anti-human IgG CM5 chip, AD4 polypeptide as analyte, 1:1 model. On the technique in general: Surface plasmon resonance follows binding to a sensor surface in real time, without labels.

For experiment [2], the target named is CMV AD169 envelope glycoprotein B (gB) (human cytomegalovirus strain AD169, UniProt P06473 32-906). The experiment in a line: cell-based or functional assay.

Bounds are passed on as bounds.

B1: C15 (antibody, V domains shown)
VH: EMQLLESGGGLVQPGGSLRVSCAASGFTFSSHAMSWVRQAPGKGLEWVSSISRSGDNTFYADSVKGRFTISRDNIKSTVYLQMNSLRAEDTAVYFCASRYTEGDSVWYFDVWGRGTLVTVSS
VL: EVVLTQSPATLSVSAGDRATLSCRASQSVSRDLAWYQQKPGQAPRLLIYGASTRATDIPVRFSGSGSGTEFSLTISSLQSEDFAVYYCHQYKHWPRTFGQGTKVEIKR
notes: Human IgG, transiently expressed in HEK293
Take B1: in experiment [1], binding was characterised by a dissociation constant (Kd) of 6.44 nM; the dissociation rate constant (koff) (commonly the first-order rate constant of dissociation) is 0.00234 s⁻¹; the on-rate (kon) (as a rule, the rate constant with which the complex forms) worked out at 363000 M⁻¹ s⁻¹. Moreover, the “CMV Neutr. IC50” value in experiment [2] was less than 0.3 µg/mL.

B2: C11 (antibody, V domains shown)
VH: EVQLLESGGGLIQPGGSLRLSCVASGFTFTRHAINWVRQAPGKGLEWVSAISGSGSSTYYADSVKGRFTISRDNAKNTLYLQMNRLRVEDTAVYYCAKDKDYGMVAATPDAFDIWGQGTMVTVSS
VL: QSVLTQPPSVSAAPGQKVTISCSGSRSNIAKNYVYWYQQLPGTAPKLLIYDTNKRPSGIPDRFSGSKSGTSATLAITGLQTGDEADYYCGTWDSSLKTAIFFGGGTTVTVLG
notes: as for B1
Turning to B2, in experiment [1], the Kd (as a rule, the free concentration of one partner at which half of the binding sites on the other are occupied at equilibrium, for simple one-to-one binding) is 5.67 nM; the koff worked out at 0.00109 s⁻¹; the kon stood at 192000 M⁻¹ s⁻¹. The “CMV Neutr. IC50” value in experiment [2] was more than 50 µg/mL.

B3: C6 (antibody, V domains shown)
VH: QVQLQESGPGLVKPLETLSLTCTVSGGSISSGSFYWTWIRQHPGKGLEWIGYIHSSGTTYYNPSLKSRLNISRDTSKNQFTLKLSSVTAADTAVYYCAKEIIQWPRRWFDPWGQGTLVTVSS
VL: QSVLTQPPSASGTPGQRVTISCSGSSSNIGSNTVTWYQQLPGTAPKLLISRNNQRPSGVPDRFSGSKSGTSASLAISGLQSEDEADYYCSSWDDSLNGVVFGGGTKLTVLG
notes: as for B1
With B3, in experiment [1], binding was put at a Kd of 2.5 nM, the koff is 0.00138 s⁻¹ and the kon stood at 554000 M⁻¹ s⁻¹. Also, the “CMV Neutr. IC50” value in experiment [2] was less than 2 µg/mL.

B4: C8 (antibody, V domains shown)
VH: QVQLQESGPGLVKPLETLSLTCTVSGGSISSGSFYWTWIRQHPGKGLEWIGYIHSSGTTYYNPSLKSRLNISRDTSKNQFTLKLSSVTAADTAVYYCAKEIIQWPRRWFDPWGQGTLVTVSS
VL: QSVLTQPPSVSAAPGQKVTISCSGSRSNIGKNYVYWYQQLPGTAPKLLIYDNNKRPSGIPDRFSGSKSGTSATLAITGLQTGDEADYYCGTWDSSLKTGIFFGGGTKLTVLG
notes: as for B1
In experiment [1], B4 returned a Kd of 4.49 nM, a koff of 0.00186 s⁻¹ and a kon of 414000 M⁻¹ s⁻¹. Also, in experiment [2], the “CMV Neutr. IC50” value was more than 50 µg/mL.

B5: C3 (antibody, V domains shown)
VH: QVQLQESGPGLVKPLETLSLTCTVSGGSISSGSFYWTWIRQHPGKGLEWIGYIHSSGTTYYNPSLKSRLNISRDTSKNQFTLKLSSVTAADTAVYYCAKEIIQWPRRWFDPWGQGTLVTVSS
VL: QSMLTQPPSVSAAPGQKVIISCSGSSSNIGNNYVNWYQQLPGTAPKLLIYDNDKRPSGIPDRFSGSKSGTSATLGITGLQTGDEADYYCGTWDSTLTAGVFGGGTKLTVLG
notes: as for B1
Turning to B5, in experiment [1], the Kd was determined as 0.549 nM, the koff is 0.00068 s⁻¹ and the kon was determined as 1.24e+06 M⁻¹ s⁻¹. In addition, in experiment [2], the “CMV Neutr. IC50” value was less than 0.07 µg/mL.

B6: C7 (antibody, V domains shown)
VH: QVQLQESGPGLVKPLETLSLTCTVSGGSISSGSFYWTWIRQHPGKGLEWIGYIHSSGTTYYNPSLKSRLNISRDTSKNQFTLKLSSVTAADTAVYYCAKEIIQWPRRWFDPWGQGTLVTVSS
VL: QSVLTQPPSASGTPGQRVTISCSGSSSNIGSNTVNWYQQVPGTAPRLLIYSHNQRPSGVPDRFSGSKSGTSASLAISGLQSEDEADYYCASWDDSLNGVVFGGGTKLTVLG
notes: as for B1
On to B6, for which, in experiment [1], the Kd amounted to 7.76 nM, the koff came to 0.00604 s⁻¹ and the kon worked out at 779000 M⁻¹ s⁻¹. Also, the “CMV Neutr. IC50” value in experiment [2] was more than 50 µg/mL.

B7: C5 (antibody, V domains shown)
VH: QVQLQESGPGLVKPLETLSLTCTVSGGSISSGSFYWTWIRQHPGKGLEWIGYIHSSGTTYYNPSLKSRLNISRDTSKNQFTLKLSSVTAADTAVYYCAKEIIQWPRRWFDPWGQGTLVTVSS
VL: QSMLTQPPSVSAAPGQKVIISCSGSSSNIGNNFVNWYQKFPGTAPKLLIYDNDKRPSGIPDRFSGSKSGTSATLGITGLQTGDEAEYYCGTWDSSLTAGVFGGGTTLTVLG
notes: as for B1
As to B7, in experiment [1], the Kd turned out to be 0.278 nM, the koff came out at 0.000201 s⁻¹ and the association rate constant (kon) was determined as 721000 M⁻¹ s⁻¹. Moreover, the “CMV Neutr. IC50” value in experiment [2] is less than 6 µg/mL.

B8: C4 (antibody, V domains shown)
VH: QVQLQESGPGLVKPLETLSLTCTVSGGSISSGSFYWTWIRQHPGKGLEWIGYIHSSGTTYYNPSLKSRLNISRDTSKNQFTLKLSSVTAADTAVYYCAKEIIQWPRRWFDPWGQGTLVTVSS
VL: QSVLTQPPSVSAAPGQKVIISCSGSGSNIGSHYVNWYQQLPGAAPKLLIYDNDKRPSGIPDRFSGSKSGTSATLAITGLQTGDEADYHCATWDGTLTAGVFGGGTKLTVLG
notes: as for B1
As to B8, in experiment [1], binding was put at a Kd of 0.695 nM, the koff is 0.00063 s⁻¹ and the kon is 908000 M⁻¹ s⁻¹. Moreover, the “CMV Neutr. IC50” value in experiment [2] was less than 0.04 µg/mL.

B9: C10 (antibody, V domains shown)
VH: QVQLQESGPGLVKPLETLSLTCTVSGGSISSGSFYWTWIRQHPGKGLEWIGYIHSSGTTYYNPSLKSRLNISRDTSKNQFTLKLSSVTAADTAVYYCAKEIIQWPRRWFDPWGQGTLVTVSS
VL: QSVLTQPPSASGTPGQRVTISCSGSSSNIGSNYIDWYQQLPGTGPQLLTYRNNQRPSGVPDRFSGSKSGTSASLAISGLRSEDEADYYCASWDDSLSSPVFGGGTKLTVLG
notes: as for B1
In experiment [1], B9 displayed a Kd of 3.97 nM, a koff of 0.00197 s⁻¹ and a kon of 496000 M⁻¹ s⁻¹. In addition, the “CMV Neutr. IC50” value in experiment [2] is more than 50 µg/mL.

B10: C9 (antibody, V domains shown)
VH: QVQLQESGPGLVKPLETLSLTCTVSGGSISSGSFYWTWIRQHPGKGLEWIGYIHSSGTTYYNPSLKSRLNISRDTSKNQFTLKLSSVTAADTAVYYCAKEIIQWPRRWFDPWGQGTLVTVSS
VL: QSVLTQPPSVSAAPGQKVTISCSGSRSNIAKNYVYWYQQLPGTAPKLLIYDTNKRPSGIPDRFSGSKSGTSATLAITGLQTGDEADYYCGTWDSSLKTAIFFGGGTTVTVLG
notes: as for B1
With B10, in experiment [1], binding was characterised by a dissociation constant (Kd) of 3.95 nM, the koff amounted to 0.00238 s⁻¹ and the kon came to 602000 M⁻¹ s⁻¹. Further, the “CMV Neutr. IC50” value in experiment [2] was more than 50 µg/mL.

B11: C12 (antibody, V domains shown)
VH: QVQLQESGPGLVKPLETLSLTCTVSGGSIRGGDYWWTWVRQPPGKGLEWLGYIYRTGSTYYNPSLKSRLTISLDTSKNHFSLKLASATAADTAVYYCARDPGDDSGGNSGLDYWGQGVLVSVSS
VL: QSMLTQPPSVSAAPGQKVIISCSGSSSNIGNNFVNWYQKFPGTAPKLLIYDNDKRPSGIPDRFSGSKSGTSATLGITGLQTGDEAEYYCGTWDSSLTAGVFGGGTTLTVLG
notes: as for B1
As for B11, in experiment [1], the Kd is 3.27 nM, the koff stood at 0.00369 s⁻¹ and the kon was 1.13e+06 M⁻¹ s⁻¹. Also, the “CMV Neutr. IC50” value in experiment [2] was more than 50 µg/mL.
